Laboratory results as given in patent US20210087231A1 (UNIVERSITY OF MARYLAND BALTIMORE, published 2021).
No end group written: not given here. Cy3 = Cy3 fluorescent dye label

Experiments:
[1] = target: T1, TRAM-Cer (UniProt Q86XR7 1-235); assay: FRET-FLIM in HeLa cells expressing the Cer fusion, Cy3-peptide 1 h
T1 construct: Control construct expressed in HeLa cells; not shown: Cerulean fluorescent protein (Cer)
Protocol: (§1) To identify potential binding partners of inhibitory peptides a FRET approach coupled with Fluorescence Lifetime Imaging Microscopy (FLIM) was used. HeLa cells were transiently transfected with an expression vector that encodes a TIR domain fused with Cerulean fluorescent protein (Cer). Cells were treated with various concentrations of a Cy3-labeled inhibitory peptide 48 hours after transfection. Cy3 is a suitable FRET acceptor for Cer fluorescence. A direct molecular interaction of a Cy3-labeled peptide with Cer-fused TIR domain should quench Cer fluorescence, leading to a decreased fluorescence lifetime.
(§2) A progressive shift of average fluorescence lifetime towards lower values observed with increasing peptide concentrations indicates the binding between donor and acceptor moieties. […] FRET efficiencies presented in FIG. 13 were calculated from the average lifetimes corresponding to entire images that contained multiple cells as in images shown in FIG. 11, using data obtained in three independent experiments. […]
(§3) The strongest peptide-induced quenching was detected for the TLR9 TIR-Cer-expressing cells treated with Cy3-9R34-ΔN. This peptide quenched the TLR9 TIR-Cer fluorescence dose-dependently with FRET efficiency varying in the range of 9-23% (FIG. 13). […]

[2] = target: T2, MyD88-Cer (UniProt Q99836 155-296); assay: as above
T2 construct: The vector is 'described previously'; Expressed in HeLa cells; also called MyD88 TIR-Cer; Cer-labeled MyD88 TIR; not shown: Cerulean fluorescent protein (Cer)
Protocol: as §1, §2, §3

T2 sequence (Q99836 155-296): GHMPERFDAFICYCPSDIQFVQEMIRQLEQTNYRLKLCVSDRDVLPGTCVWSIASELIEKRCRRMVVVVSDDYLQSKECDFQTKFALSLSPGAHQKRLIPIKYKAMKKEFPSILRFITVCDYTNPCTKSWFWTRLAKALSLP
T1 sequence (Q86XR7 whole entry, the tested form may be a part): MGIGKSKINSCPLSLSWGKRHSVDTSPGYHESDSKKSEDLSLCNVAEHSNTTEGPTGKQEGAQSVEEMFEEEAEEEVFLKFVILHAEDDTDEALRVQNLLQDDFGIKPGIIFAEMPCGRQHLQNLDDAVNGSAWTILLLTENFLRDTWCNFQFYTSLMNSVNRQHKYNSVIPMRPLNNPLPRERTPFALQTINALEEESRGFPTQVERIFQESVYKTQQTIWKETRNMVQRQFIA

binding result [1]: no binding (tested: 40 µM) | binding result [2]: no binding (tested: 2.5 and 10 µM)
B1: Cy3-9R34-ΔN (peptide)
peptide: Cy3-RQIKIWFQNRRMKWKKALRLCLEERD
notes: Cy3-labeled cell-permeating decoy peptide (CPDP); also called 9R34-ΔNa; peptide from Surface 1 (S1) of TLR9
